B1: Microsomal triglyceride transfer protein large subunit (Homo sapiens), P55157 (parent)
chain: MILLAVLFLCFISSYSASVKGHTTGLSLNNDRLYKLTYSTEVLLDRGKGKLQDSVGYRISSNVDVALLWRNPDGDDDQLIQITMKDVNVENVNQQRGEKSIFKGKSPSKIMGKENLEALQRPTLLHLIHGKVKEFYSYQNEAVAIENIKRGLASLFQTQLSSGTTNEVDISGNCKVTYQAHQDKVIKIKALDSCKIARSGFTTPNQVLGVSSKATSVTTYKIEDSFVIAVLAEETHNFGLNFLQTIKGKIVSKQKLELKTTEAGPRLMSGKQAAAIIKAVDSKYTAIPIVGQVFQSHCKGCPSLSELWRSTRKYLQPDNLSKAEAVRNFLAFIQHLRTAKKEEILQILKMENKEVLPQLVDAVTSAQTSDSLEAILDFLDFKSDSSIILQERFLYACGFASHPNEELLRALISKFKGSIGSSDIRETVMIITGTLVRKLCQNEGCKLKAVVEAKKLILGGLEKAEKKEDTRMYLLALKNALLPEGIPSLLKYAEAGEGPISHLATTALQRYDLPFITDEVKKTLNRIYHQNRKVHEKTVRTAAAAIILNNNPSYMDVKNILLSIGELPQEMNKYMLAIVQDILRFEMPASKIVRRVLKEMVAHNYDRFSRSGSSSAYTGYIERSPRSASTYSLDILYSGSGILRRSNLNIFQYIGKAGLHGSQVVIEAQGLEALIAATPDEGEENLDSYAGMSAILFDVQLRPVTFFNGYSDLMSKMLSASGDPISVVKGLILLIDHSQELQLQSGLKANIEVQGGLAIDISGAMEFSLWYRESKTRVKNRVTVVITTDITVDSSFVKAGLETSTETEAGLEFISTVQFSQYPFLVCMQMDKDEAPFRQFEKKYERLSTGRGYVSQKRKESVLAGCEFPLHQENSEMCKVVFAPQPDSTSSGWF
partner: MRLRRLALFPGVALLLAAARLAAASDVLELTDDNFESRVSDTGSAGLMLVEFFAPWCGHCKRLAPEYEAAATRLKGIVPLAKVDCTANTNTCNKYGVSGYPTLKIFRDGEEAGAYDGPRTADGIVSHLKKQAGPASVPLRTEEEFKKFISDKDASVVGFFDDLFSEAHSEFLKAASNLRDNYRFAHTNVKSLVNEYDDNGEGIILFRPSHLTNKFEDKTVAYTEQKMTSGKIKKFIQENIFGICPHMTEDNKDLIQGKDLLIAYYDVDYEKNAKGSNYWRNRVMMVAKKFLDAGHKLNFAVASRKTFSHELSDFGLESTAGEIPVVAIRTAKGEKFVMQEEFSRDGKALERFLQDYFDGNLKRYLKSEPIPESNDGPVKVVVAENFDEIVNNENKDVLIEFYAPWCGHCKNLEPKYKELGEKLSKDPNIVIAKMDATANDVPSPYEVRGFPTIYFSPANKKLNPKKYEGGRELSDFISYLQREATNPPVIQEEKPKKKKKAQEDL

Variants of: B1
Details: with pdia3_chlae PDIA3, Q4VIT4

Row | Variant | effect of a mutation on the interaction
1 | N780Y | with no effect

Source: IntAct's records for PubMed 10946006
